Columns and labels:
[1] = biological target: Middle East respiratory syndrome papain-like protease (MERS PLpro), recombinant (Middle East respiratory syndrome coronavirus)
[2] = biological target: human UCH-L3, recombinant (human) (UniProt P15374)
Sequence of UniProt P15374 (P15374 whole entry): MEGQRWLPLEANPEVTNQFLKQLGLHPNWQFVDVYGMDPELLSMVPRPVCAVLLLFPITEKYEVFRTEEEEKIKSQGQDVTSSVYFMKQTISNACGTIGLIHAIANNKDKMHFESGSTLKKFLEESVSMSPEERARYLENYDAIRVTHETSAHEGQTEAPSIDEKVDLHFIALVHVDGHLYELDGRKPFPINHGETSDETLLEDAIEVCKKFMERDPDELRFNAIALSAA

Ub-ACC (ubiquitin with C-terminal ACC fluorophore) (from UniProt P0CG48 1-76)
KM of hydrolysis of the ACC-labeled substrate (release of ACC) [1]: 3.55 µM | kcat of hydrolysis of the ACC-labeled substrate [1]: 3.68 s^–1 | kcat/KM of hydrolysis of the ACC-labeled substrate [1]: 1e+06 M^–1 s^–1 | KM of hydrolysis of the ACC-labeled substrate (release of ACC) [2]: 0.048 µM | kcat of hydrolysis of the ACC-labeled substrate [2]: 0.107 s^–1
